In this test the target is CD40 on the surface of mature dendritic cells (mDC) (human) (UniProt P25942). The test is described as follows: cell-based or functional assay.
Sequence of CD40 on the surface of mature dendritic cells (mDC) (human) (P25942 21-277): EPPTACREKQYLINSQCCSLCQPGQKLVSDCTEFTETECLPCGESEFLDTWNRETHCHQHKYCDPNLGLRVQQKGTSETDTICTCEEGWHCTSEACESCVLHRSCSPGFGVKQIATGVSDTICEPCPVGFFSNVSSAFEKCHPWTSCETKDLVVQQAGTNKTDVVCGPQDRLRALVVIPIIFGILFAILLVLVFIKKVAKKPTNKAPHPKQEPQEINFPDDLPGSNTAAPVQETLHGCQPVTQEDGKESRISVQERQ

Take “CD40L recombinant protein (from UniProt P29965 113-261) (ligand)”: the CD83+ (%) of mDC, agonist at 2 µg/mL (control group 81.00) worked out at 88.2% and the IL-12p70 (pg/mL), agonist at 2 µg/mL (control group 50.0) is 874 pg/mL.

The record behind these values is US12440565.
